Test results published in PMC6043778, “Purification and Initial Characterization of 3-Hydroxybenzoate 6-Hydroxylase From a Halophilic Martelella Strain AD-3” (Frontiers in Microbiology, 2018).
Changes are numbered by the printed parent chain. Names may count otherwise.

T1: 3HB6H from strain AD-3 (3-hydroxybenzoate 6-hydroxylase; AZF01_02545) (Martelella sp. AD-3, UniProt Z9T156WZO1)
T1 construct: full-length, N-terminal His6 tag (pET28a, EcoRI/HindIII), E. coli BL21(DE3), Ni-NTA; about 46 kDa by SDS-PAGE, 90 kDa by Native-PAGE (probable dimer); FAD-containing
T1 sequence (Z9T156WZO1 1-403): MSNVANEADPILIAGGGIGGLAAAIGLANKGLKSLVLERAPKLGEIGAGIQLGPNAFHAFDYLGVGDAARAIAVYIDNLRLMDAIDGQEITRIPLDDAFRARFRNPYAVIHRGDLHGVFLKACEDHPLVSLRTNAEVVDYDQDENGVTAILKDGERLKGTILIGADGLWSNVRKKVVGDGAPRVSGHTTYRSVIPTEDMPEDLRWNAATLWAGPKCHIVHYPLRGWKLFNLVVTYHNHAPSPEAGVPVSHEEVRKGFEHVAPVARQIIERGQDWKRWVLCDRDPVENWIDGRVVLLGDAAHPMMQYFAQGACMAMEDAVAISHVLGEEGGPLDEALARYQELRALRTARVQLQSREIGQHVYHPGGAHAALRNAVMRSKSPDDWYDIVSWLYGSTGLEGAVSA

B1: 3HB6H from strain AD-3 (3-hydroxybenzoate 6-hydroxylase; AZF01_02545) (Martelella sp. AD-3) (protein)
chain: T1 sequence (Z9T156WZO1 1-403)
notes: full-length, N-terminal His6 tag (pET28a, EcoRI/HindIII), E. coli BL21(DE3), Ni-NTA; about 46 kDa by SDS-PAGE, 90 kDa by Native-PAGE (probable dimer); FAD-containing
B2: 3HB6H from strain AD-3 (3-hydroxybenzoate 6-hydroxylase; AZF01_02545) (Martelella sp. AD-3; Q305P) (protein)
chain: T1 sequence (Z9T156WZO1 1-403) with Q305P
notes: as for B1
B3: 3HB6H from strain AD-3 (3-hydroxybenzoate 6-hydroxylase; AZF01_02545) (Martelella sp. AD-3; Y221F) (protein)
chain: T1 sequence (Z9T156WZO1 1-403) with Y221F
notes: as for B1
B4: 3HB6H from strain AD-3 (3-hydroxybenzoate 6-hydroxylase; AZF01_02545) (Martelella sp. AD-3; Y306H) (protein)
chain: T1 sequence (Z9T156WZO1 1-403) with Y306H
notes: as for B1
B5: 3HB6H from strain AD-3 (3-hydroxybenzoate 6-hydroxylase; AZF01_02545) (Martelella sp. AD-3; A308G) (protein)
chain: T1 sequence (Z9T156WZO1 1-403) with A308G
notes: as for B1

molecular target: T1, 3HB6H from strain AD-3 (3-hydroxybenzoate 6-hydroxylase; AZF01_02545); assay: NADH oxidation at […] nm, Lineweaver-Burk; type: biochemical; details: 400 μM 3-hydroxybenzoate, 50 mM potassium phosphate pH 8.0, 30°C; read-out: NADH / Km

Row | Molecule | Km
1 | NC(=O)C1=CN([C@@H]2O[C@H](COP(=O)(O)OP(=O)(O)OC[C@H]3O[C@@H](n4cnc5c(N)ncnc54)[C@H](O)[C@@H]3O)[C@@H](O)[C@H]2O)C=CC1 [NADH] | 50 ± 9.7 µM

same assay, conditions: 400 μM NADH, 50 mM potassium phosphate pH 8.0, 30°C; read-out: 3HB / Km

Row | Molecule | Km
2 | O=C(O)c1cccc(O)c1 [3-hydroxybenzoate] | 28.6 ± 7.3 µM

substrate: NC(=O)C1=CN([C@@H]2O[C@H](COP(=O)(O)OP(=O)(O)OC[C@H]3O[C@@H](n4cnc5c(N)ncnc54)[C@H](O)[C@@H]3O)[C@@H](O)[C@H]2O)C=CC1; assay: purified protein; type: biochemical, Martelella sp. AD-3; details: 400 μM 3-hydroxybenzoate, 50 mM potassium phosphate pH 8.0, 30°C

Row | Molecule | Km | kcat | kcat/Km
3 | B1 | 104.1 ± 18.2 µM | 7.8 ± 0.4 s⁻¹ | 80000 M⁻¹ s⁻¹
4 | B2 | 95.9 ± 23.2 µM | 1.6 ± 0.1 s⁻¹ | 20000 M⁻¹ s⁻¹
5 | B3 | 86.7 ± 10.8 µM | 1 ± 0.1 s⁻¹ | 10000 M⁻¹ s⁻¹
6 | B4 | 103.7 ± 13.6 µM | 1.6 ± 0.3 s⁻¹ | –
7 | B5 | 33.7 ± 6.4 µM | 2 ± 0.1 s⁻¹ | 60000 M⁻¹ s⁻¹

substrate: O=C(O)c1cccc(O)c1; assay: purified protein; type: biochemical, Martelella sp. AD-3; details: 400 μM NADH, 50 mM potassium phosphate pH 8.0, 30°C

Row | Molecule | Km | kcat | kcat/Km
8 | B1 | 72.6 ± 10.1 µM | 5.7 ± 0.2 s⁻¹ | 80000 M⁻¹ s⁻¹
9 | B2 | 91.3 ± 13.5 µM | 1.6 ± 0.1 s⁻¹ | 20000 M⁻¹ s⁻¹
10 | B3 | 164.2 ± 14.0 µM | 1.7 ± 0.1 s⁻¹ | 10000 M⁻¹ s⁻¹
11 | B4 | 46.3 ± 6.9 µM | 1.5 ± 0.1 s⁻¹ | 30000 M⁻¹ s⁻¹
12 | B5 | 38.0 ± 10.1 µM | 2.3 ± 0.1 s⁻¹ | 60000 M⁻¹ s⁻¹
